Experimental data as given in PMC7954794, “Protein context shapes the specificity of SH3 domain-mediated interactions in vivo” (Nature Communications, 2021).

Test system: Abp1 PPIs
Assay: DHFR-PCA of Abp1 SH3-swapped baits (Fig. 2B-D, S2C, S2F);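 on Protein-protein interaction distance between Abp1 SH3-swapped baits, to ABP1: Euclidean distance between DHFR-PCA score profiles of the baits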;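 on Protein-protein interaction distance between Abp1 SH3-swapped baits, to BEM1-2: Euclidean distance between DHFR-PCA score profiles of the baits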;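 on Protein-protein interaction distance between Abp1 SH3-swapped baits, to BOI1: Euclidean distance between DHFR-PCA score profiles of the baits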;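 on Protein-protein interaction distance between Abp1 SH3-swapped baits, to BZZ1-1: Euclidean distance between DHFR-PCA score profiles of the baits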
Format: cell-based, Saccharomyces cerevisiae
Method in brief: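 Yeast DHFR-PCA in which Abp1 baits, carrying their SH3 replaced by CRISPR–Cas9 with one of 27 yeast SH3s or human CTTN, HCLS1 or DBNL SH3s, were mated against 575 SH3-associated DHFR F[3] preys plus 40 negative controls. Four tests were run per PPI. Diploids were selected twice (48 h, 30 °C), then grown 4 days on PCA selection media.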

[1] = number of PPIs, difference, Abp1 SH3-swapped with the listed SH3, Fig2D,S2F

B1: MYO3 (protein, UniProt P36006 1-1272, looked up)
Myosin-3: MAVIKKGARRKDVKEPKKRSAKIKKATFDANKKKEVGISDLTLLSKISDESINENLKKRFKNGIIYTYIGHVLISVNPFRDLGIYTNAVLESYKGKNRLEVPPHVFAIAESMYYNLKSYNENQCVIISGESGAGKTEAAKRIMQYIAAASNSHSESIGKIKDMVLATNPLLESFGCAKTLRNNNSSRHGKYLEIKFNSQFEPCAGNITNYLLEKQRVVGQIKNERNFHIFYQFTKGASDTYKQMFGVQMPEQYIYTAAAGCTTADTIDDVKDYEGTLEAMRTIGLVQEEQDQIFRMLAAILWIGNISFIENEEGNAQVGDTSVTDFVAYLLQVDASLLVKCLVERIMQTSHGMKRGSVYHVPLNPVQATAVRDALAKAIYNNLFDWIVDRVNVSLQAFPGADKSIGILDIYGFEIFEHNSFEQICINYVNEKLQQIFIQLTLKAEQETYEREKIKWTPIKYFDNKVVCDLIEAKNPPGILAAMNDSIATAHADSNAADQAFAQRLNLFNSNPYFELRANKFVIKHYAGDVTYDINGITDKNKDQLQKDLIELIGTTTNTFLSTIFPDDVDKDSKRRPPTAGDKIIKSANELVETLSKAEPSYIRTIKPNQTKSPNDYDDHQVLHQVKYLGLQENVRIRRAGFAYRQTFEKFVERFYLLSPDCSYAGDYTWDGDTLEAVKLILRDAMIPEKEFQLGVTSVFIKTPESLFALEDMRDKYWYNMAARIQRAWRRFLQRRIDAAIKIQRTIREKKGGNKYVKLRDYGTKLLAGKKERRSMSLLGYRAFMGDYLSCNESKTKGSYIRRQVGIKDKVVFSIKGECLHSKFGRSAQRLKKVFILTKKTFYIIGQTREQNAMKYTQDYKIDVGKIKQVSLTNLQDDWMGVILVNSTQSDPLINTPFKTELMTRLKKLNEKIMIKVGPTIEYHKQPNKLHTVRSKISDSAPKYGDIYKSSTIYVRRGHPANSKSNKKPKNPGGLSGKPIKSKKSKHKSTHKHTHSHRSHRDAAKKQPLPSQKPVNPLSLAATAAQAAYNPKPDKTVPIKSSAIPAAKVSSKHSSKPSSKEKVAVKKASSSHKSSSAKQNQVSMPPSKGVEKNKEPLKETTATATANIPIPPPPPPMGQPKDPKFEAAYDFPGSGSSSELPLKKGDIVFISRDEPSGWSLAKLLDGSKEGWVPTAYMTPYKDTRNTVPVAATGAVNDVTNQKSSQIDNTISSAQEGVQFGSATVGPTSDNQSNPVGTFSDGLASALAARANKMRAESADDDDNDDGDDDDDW
With B1 the “Protein-protein interaction distance between Abp1 SH3-swapped baits, to ABP1” value (Abp1 bait with swapped SH3, distance to bait with ABP1 SH3, sheet Fig2C) was 12.85, the “Protein-protein interaction distance between Abp1 SH3-swapped baits, to BBC1” value (distance to Abp1 bait with BBC1 SH3, sheet Fig2C) was 13.06 and the “Protein-protein interaction distance between Abp1 SH3-swapped baits, to BEM1-1” value (distance to Abp1 bait with BEM1-1 SH3, sheet Fig2C) was 17.48. The “Protein-protein interaction distance between Abp1 SH3-swapped baits, to BEM1-2” value (distance to Abp1 bait with BEM1-2 SH3, sheet Fig2C) was 35.25, the “Protein-protein interaction distance between Abp1 SH3-swapped baits, to BOI1” value (distance to Abp1 bait with BOI1 SH3, sheet Fig2C) was 14.63 and the “Protein-protein interaction distance between Abp1 SH3-swapped baits, to BOI2” value (distance to Abp1 bait with BOI2 SH3, sheet Fig2C) was 17.97. For the same molecule, the “Protein-protein interaction distance between Abp1 SH3-swapped baits, to BUD14” value (distance to Abp1 bait with BUD14 SH3, sheet Fig2C) was 20.78, the “Protein-protein interaction distance between Abp1 SH3-swapped baits, to BZZ1-1” value (distance to Abp1 bait with BZZ1-1 SH3, sheet Fig2C) was 10.1 and the “Protein-protein interaction distance between Abp1 SH3-swapped baits, to BZZ1-2” value (distance to Abp1 bait with BZZ1-2 SH3, sheet Fig2C) was 14.12. The “Protein-protein interaction distance between Abp1 SH3-swapped baits, to CDC25” value (distance to Abp1 bait with CDC25 SH3, sheet Fig2C) was 29.41, the “Protein-protein interaction distance between Abp1 SH3-swapped baits, to CTTN” value (distance to Abp1 bait with CTTN SH3, sheet Fig2C) was 15.21 and the “Protein-protein interaction distance between Abp1 SH3-swapped baits, to CYK3” value (distance to Abp1 bait with CYK3 SH3, sheet Fig2C) was 30.11. The “Protein-protein interaction distance between Abp1 SH3-swapped baits, to DBNL” value (distance to Abp1 bait with DBNL SH3, sheet Fig2C) was 10.74, the “Protein-protein interaction distance between Abp1 SH3-swapped baits, to FUS1” value (distance to Abp1 bait with FUS1 SH3, sheet Fig2C) was 21.97 and the “Protein-protein interaction distance between Abp1 SH3-swapped baits, to HCLS1” value (distance to Abp1 bait with HCLS1 SH3, sheet Fig2C) was 11.19. For the same molecule, the “Protein-protein interaction distance between Abp1 SH3-swapped baits, to HOF1” value (distance to Abp1 bait with HOF1 SH3, sheet Fig2C) was 33.94, the “Protein-protein interaction distance between Abp1 SH3-swapped baits, to HSE1” value (distance to Abp1 bait with HSE1 SH3, sheet Fig2C) was 11.17 and the “Protein-protein interaction distance between Abp1 SH3-swapped baits, to LSB1” value (distance to Abp1 bait with LSB1 SH3, sheet Fig2C) was 9.135. The “Protein-protein interaction distance between Abp1 SH3-swapped baits, to LSB3” value (distance to Abp1 bait with LSB3 SH3, sheet Fig2C) was 9.625, the “Protein-protein interaction distance between Abp1 SH3-swapped baits, to MYO3” value (distance to Abp1 bait with MYO3 SH3, sheet Fig2C) was 0.00 and the “Protein-protein interaction distance between Abp1 SH3-swapped baits, to MYO5” value (distance to Abp1 bait with MYO5 SH3, sheet Fig2C) was 5.861. For the same molecule, the “Protein-protein interaction distance between Abp1 SH3-swapped baits, to NBP2” value (distance to Abp1 bait with NBP2 SH3, sheet Fig2C) was 19.88, the “Protein-protein interaction distance between Abp1 SH3-swapped baits, to PEX13” value (distance to Abp1 bait with PEX13 SH3, sheet Fig2C) was 8.874 and the “Protein-protein interaction distance between Abp1 SH3-swapped baits, to PIN3” value (distance to Abp1 bait with PIN3 SH3, sheet Fig2C) was 8.374. The “Protein-protein interaction distance between Abp1 SH3-swapped baits, to RVS167” value (distance to Abp1 bait with RVS167 SH3, sheet Fig2C) was 9.049, the “Protein-protein interaction distance between Abp1 SH3-swapped baits, to SDC25” value (distance to Abp1 bait with SDC25 SH3, sheet Fig2C) was 35.91 and the “Protein-protein interaction distance between Abp1 SH3-swapped baits, to SHO1” value (distance to Abp1 bait with SHO1 SH3, sheet Fig2C) was 10.66. The “Protein-protein interaction distance between Abp1 SH3-swapped baits, to SLA1-1” value (distance to Abp1 bait with SLA1-1 SH3, sheet Fig2C) was 31.98, the “Protein-protein interaction distance between Abp1 SH3-swapped baits, to SLA1-2” value (distance to Abp1 bait with SLA1-2 SH3, sheet Fig2C) was 22.64 and the “Protein-protein interaction distance between Abp1 SH3-swapped baits, to SLA1-3” value (distance to Abp1 bait with SLA1-3 SH3, sheet Fig2C) was 9.056. The “Protein-protein interaction distance between Abp1 SH3-swapped baits, to YSC84” value (distance to Abp1 bait with YSC84 SH3, sheet Fig2C) was 9.995, the “PPIs gained by Abp1 - SH3-dependent PPIs gained by Abp1” value [1] was 24 and the “SH3-dependent PPIs - SH3-dependent PPIs gained by Abp1” value [1] was 13. For the same molecule, the “SH3-dependent PPIs gained by Abp1” value (number of PPIs, Abp1 SH3-swapped with the listed SH3, DHFR-PCA, Fig2D,S2F) was 4.
